From article PMC10033409, “Autoregulation of GPCR signalling through the third intracellular loop” (Nature, 2023)

Target: T1, β2 adrenergic receptor (β2AR), wild type, receptor part of the β2AR–G peptide SPASM FRET sensor (human, UniProt P07550)
T1 construct: β2 adrenergic receptor (β2AR), human; One polypeptide: Receptor-4×GSG-mCitrine-4×GSG-10 nm ER/K linker-4×GSG-mCerulean-4×GSG-G peptide; the receptor and the G peptide (m5 or m6) are tethered on the same chain; also called WT; wild-type β2AR–Gs peptide sensor; source: HEK 293T Flp-In T-Rex cells, transfected, crude membrane extracts; not shown: mCitrine, C-terminal, kept
Experiment: FRET or BRET; ∆FRET assay of β2AR SPASM sensors in membrane extracts; purified Nb6B9 added to quench the agonist-induced change in FRET
Settings: one partner purified

binding result: binds
B1: Nanobody Nb6B9 (Nb6B9-2×GSG-SNAP tag-Flag-2×GSG-6×His) (VHH)
VHH: QVQLQESGGGLVQAGGSLRLSCAASGSIFALNIMGWYRQAPGKQRELVAAIHSGGTTNYANSVKGRFTISRDNAANTVYLQMNSLKPEDTAVYYCNVKDFGAIIYDYDYWGQGTQVTVSS
notes: Cloned into a pBiex1 backbone; source: E. coli JM109, purified (Ni-NTA, Superdex 200 gel filtration)
